Experimental findings from publication PMC8906541, “A conserved arginine in NS5 binds genomic 3′ stem–loop RNA for primer-independent initiation of flavivirus RNA replication” are described below.

Data set [1] concerns the target T1, NS5 WT (Dengue virus 2, UniProt A9LIC9 2492-3391). Briefly: EMSA; Kd stated only as micromolar range; value in figure. To be noted: protein: recombinant; tags: N-terminal His6-TEV, cleaved; stem-loop.
The target of data set [2] is T1, NS5 WT. Kind of data set: EMSA; Kd value only in figure; >100-fold excess yeast tRNA does not affect binding. To be noted: protein: recombinant; tags: N-terminal His6-TEV, cleaved; stem-loop. (In EMSA bound probe runs differently from free probe, usually more slowly.)

B1: 5'SLA (structured_RNA)
RNA: AGUUGUUAGUCUACGUGGACCGACAAAGACAGAUUCUUUGAGGAAGCUAAGCUUAACGUAGUUCUAACAG
Turning to B1, the binding result with NS5 WT [1] is reported as “binds”.

B2: 3'SL (structured_RNA)
RNA: AGAUCCUGCUGUCUCCUCAGCAUCAUUCCAGGCACAGAACGCCAGAAAAUGGAAUGGUGCUGUUGAAUCAACAGGUUCU
B2: in the data set with NS5 WT [2], the binding result is listed as “binds”.
